T1: YN010 peptide on HLA-A*02:01 (human)
T1 peptide: VLALWEAEV

T2: MLEC peptide on HLA-A*02:01 (human)
T2 peptide: VLVLKFAEV

T3: CHPF2 peptide on HLA-A*02:01 (human)
T3 peptide: VLPLLVAEA

T4: ULK1 peptide on HLA-A*02:01 (human)
T4 peptide: VLYLKVAEL

T5: OR2J2 peptide on HLA-A*02:01 (human)
T5 peptide: VLALGIAEC

T6: DNHD1 peptide on HLA-A*02:01 (human)
T6 peptide: VLELLLAEL

T7: AL1L1 peptide on HLA-A*02:01 (human)
T7 peptide: VLELTEAEL

T8: GALP peptide on HLA-A*02:01 (human)
T8 peptide: VLLLSLAET

T9: OR2J1 peptide on HLA-A*02:01 (human)
T9 peptide: VLALGTAEC

T10: ADPRH peptide on HLA-A*02:01 (human)
T10 peptide: VMHLATAEA

T11: CHPF2 peptide on HLA-A*02:01 (human)
T11 peptide: VLPLIVAEA

T12: LRCH3 peptide on HLA-A*02:01 (human)
T12 peptide: DLPLRVAEI

T13: IN80B peptide on HLA-A*02:01 (human)
T13 peptide: MLPLPVAEG

T14: CEAM3 peptide on HLA-A*02:01 (human)
T14 peptide: SMPLSVAEG

T15: mesothelin (human MSLN, isoform 1, SEQ ID NO:50) peptide on HLA-A*02:01 (human)
T15 peptide: VLPLTVAEV

T16: mesothelin (human MSLN, isoform 1, SEQ ID NO:50) peptide on HLA-A*02:01 (human)
T16 peptide: SLLFLLFSL

T17: EHF (peptide #10) peptide on HLA-A*02:01 (human)
T17 peptide: VLLLSLAEI


Key:
[1] = molecular target: T1, YN010 peptide on HLA-A*02:01; assay: cytokine release
[2] = molecular target: T2, MLEC peptide on HLA-A*02:01; assay: cytokine release
[3] = molecular target: T3, CHPF2 peptide on HLA-A*02:01; assay: cytokine release
[4] = molecular target: T4, ULK1 peptide on HLA-A*02:01; assay: cytokine release
[5] = molecular target: T5, OR2J2 peptide on HLA-A*02:01; assay: cytokine release
[6] = molecular target: T6, DNHD1 peptide on HLA-A*02:01; assay: cytokine release
[7] = molecular target: T7, AL1L1 peptide on HLA-A*02:01; assay: cytokine release
[8] = molecular target: T8, GALP peptide on HLA-A*02:01; assay: cytokine release
[9] = molecular target: T9, OR2J1 peptide on HLA-A*02:01; assay: cytokine release
[10] = molecular target: T10, ADPRH peptide on HLA-A*02:01; assay: cytokine release
[11] = molecular target: T11, CHPF2 peptide on HLA-A*02:01; assay: cytokine release
[12] = molecular target: T12, LRCH3 peptide on HLA-A*02:01; assay: cytokine release
[13] = molecular target: T13, IN80B peptide on HLA-A*02:01; assay: cytokine release
[14] = molecular target: T14, CEAM3 peptide on HLA-A*02:01; assay: cytokine release
[15] = molecular target: T15, mesothelin (human MSLN, isoform 1, SEQ …); assay: multimer staining
[16] = molecular target: T16, mesothelin (human MSLN, isoform 1, SEQ …); assay: multimer staining
[17] = molecular target: T17, EHF (peptide #10) peptide on HLA-A*02:01; assay: cytokine release

Row | binding result [1] | binding result [2] | binding result [3] | binding result [4] | binding result [5] | binding result [6] | binding result [7] | binding result [8] | binding result [9] | binding result [10] | binding result [11] | binding result [12] | binding result [13] | binding result [14] | binding result [15] | binding result [16] | binding result [17] | Binder
1 | no recognition | no recognition | no recognition | no recognition | no recognition | no recognition | no recognition | no recognition | no recognition | no recognition | no recognition | no recognition | no recognition | no recognition | recognises |  |  | Meso530-11B (TCR, V domains shown) Valpha: KQEVTQIPAALSVPEGENLVLNCSFTDSAIYNLQWFRQDPGKGLTSLLLIQSSQREQTSGRLNASLDKSSGRSTLYIAASQPGDSATYLCAVRLLFAQGGSEKLVFGKGTKLTVNP Vbeta: ETGVTQSPTHLIKTRGQQVTLRCSSQSGHNTVSWYQQALGQGPQFIFQYYREEENGRGNFPPRFSGLQFPNYSSELNVNALELDDSALYLCASSFAGGRSDTQYFGPGTRLTVL
2 |  |  |  |  |  |  |  |  |  |  |  |  |  |  |  | recognises |  | Meso20-3B (TCR, V domains shown) Valpha: GQSLEQPSEVTAVEGAIVQINCTYQTSGFYGLSWYQQHDGGAPTFLSYNALDGLEETGRFSSFLSRSDSYGYLLLQELQMKDSASYFCAVNDASKIIFGSGTRLSIRP Vbeta: DAGVIQSPRHEVTEMGQEVTLRCKPISGHDYLFWYRQTMMRGLELLIYFNNNVPIDDSGMPEDRFSAKMPNASFSTLKIQPSEPRDSAVYFCASSFTSGSYEQYFGPGTRLTVT
3 | no recognition | no recognition | no recognition | no recognition | no recognition | no recognition | no recognition | no recognition | no recognition | no recognition | no recognition | no recognition | no recognition | no recognition | recognises |  | no recognition | Meso530-11A (TCR, V domains shown) Valpha: GEDVEQSLFLSVREGDSSVINCTYTDSSSTYLYWYKQEPGAGLQLLTYIFSNMDMKQDQRLTVLLNKKDKHLSLRIADTQTGDSAIYFCAETPGYGGATNKLIFGTGTLLAVQP Vbeta: DTEVTQTPKHLVMGMTNKKSLKCEQHMGHRAMYWYKQKAKKPPELMFVYSYEKLSINESVPSRFSPECPNSSLLNLHLHALQPEDSALYLCASSHGSLNTEAFFGQGTRLTVV

Reference: patent US20220009992A1 (published 2022)
